Key:
[1] = target: human NKG2D, cell surface (human) (UniProt P26718); assay: cell-based or functional assay
human Fc-NKG2D (human) [2] = target: human Fc-NKG2D (human) (UniProt P26718); assay: SPR (BIAcore 2000), human Fc-NKG2D immobilized on chip; bivalent IgG
human Fc-NKG2D (human) [3] = target: human Fc-NKG2D (human) (UniProt P26718); assay: SPR (BIAcore 2000), human Fc-NKG2D immobilized on chip; bivalent binding (virtual affinity, avidity)

Chain of human NKG2D, cell surface (human) (P26718 whole entry): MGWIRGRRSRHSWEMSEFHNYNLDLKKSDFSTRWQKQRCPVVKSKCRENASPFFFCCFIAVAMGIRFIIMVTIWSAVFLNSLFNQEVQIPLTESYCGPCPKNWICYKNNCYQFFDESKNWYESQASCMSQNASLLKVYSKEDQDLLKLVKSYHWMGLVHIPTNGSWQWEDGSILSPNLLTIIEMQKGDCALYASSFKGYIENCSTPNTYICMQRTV
Chain of human Fc-NKG2D (human) (P26718 78-216 limits assumed): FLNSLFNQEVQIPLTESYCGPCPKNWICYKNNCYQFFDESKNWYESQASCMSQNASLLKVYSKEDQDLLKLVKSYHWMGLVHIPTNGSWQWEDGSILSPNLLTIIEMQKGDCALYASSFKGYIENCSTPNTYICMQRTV

percentage of degranulated NK cells (CD56+ CD107a/CD107b+) among total NK cells (CD56+), immobilized antibody, Donor 1 [1]: 13.6%
percentage of degranulated NK cells (CD56+ CD107a/CD107b+) among total NK cells (CD56+), immobilized antibody, Donor 2 [1]: 16.3%
percentage of degranulated NK cells (CD56+ CD107a/CD107b+) among total NK cells (CD56+), immobilized antibody, Donor 3 [1]: 24.3%
percentage of degranulated NK cells (CD56+ CD107a/CD107b+) among total NK cells (CD56+), immobilized antibody, Donor 4 [1]: 8.4%
koff (human Fc-NKG2D (human) [2]): 5.1e-05 s⁻¹
kon (human Fc-NKG2D (human) [2]): 140000 M⁻¹ s⁻¹
Kd (human Fc-NKG2D (human) [3]): 0.36 nM
Substance: mouse anti-human NKG2D mAb 149810 (antibody)
